Experimental data reported in US20050226881A1 (LUDWIG INSTITUTE FOR CANCER RESEARCH, published 2005).

Molecular target: HLA-Cw*0701 (human)
Test: cell-based or functional assay

percent lysis (51Cr release) of autologous EBV-B cells loaded with 1 nM peptide, effector/target ratio 5:1: ~34%
Binder: EGDCAPEEK [peptide (D), EGDCAPEEK (amino acids 2-10 of SEQ ID NO: 2)]
